From PMC7753147 (2020)

T1: gephyrin E domain (gephE), recombinant
T1 chain: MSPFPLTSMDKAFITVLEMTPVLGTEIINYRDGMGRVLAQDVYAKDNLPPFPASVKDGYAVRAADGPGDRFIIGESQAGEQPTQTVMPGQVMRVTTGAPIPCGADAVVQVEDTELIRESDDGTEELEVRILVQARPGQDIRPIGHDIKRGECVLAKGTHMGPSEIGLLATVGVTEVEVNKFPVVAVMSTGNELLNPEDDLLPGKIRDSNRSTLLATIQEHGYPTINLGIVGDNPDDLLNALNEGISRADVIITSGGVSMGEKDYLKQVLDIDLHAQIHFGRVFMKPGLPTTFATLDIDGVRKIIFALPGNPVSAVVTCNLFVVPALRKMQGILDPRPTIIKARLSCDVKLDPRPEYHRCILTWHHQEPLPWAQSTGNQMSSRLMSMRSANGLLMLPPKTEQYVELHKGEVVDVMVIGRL

T2: Gephyrin E domain (gephE) (Rattus norvegicus, UniProt Q03555)
T2 chain: T1 chain

B1: GlyR β-derived peptide 414DLRSNDFSIVGSLPR428, unmodified, in solution (peptide)
peptide: DLRSNDFSIVGSLPR
modifications: C-terminal amide
B2: GlyRβ_Full_Positional_Scan_183 (peptide)
chain: DLRSNDFSIIGSLPR
B3: GlyRβ_Full_Positional_Scan_178 (peptide)
chain: DLRSNDFSMVGSLPR
B4: GlyRβ_Full_Positional_Scan_129 (peptide)
chain: DLRSNDYSIVGSLPR
B5: GlyRβ_Full_Positional_Scan_164 (peptide)
chain: DLRSNDFSLVGSLPR
B6: GlyRβ_Full_Positional_Scan_156 (peptide)
chain: DLRSNDFTIVGSLPR
B7: GlyRβ_Full_Positional_Scan_177 (peptide)
chain: DLRSNDFSCVGSLPR
B8: GlyRβ_Full_Positional_Scan_142 (peptide)
chain: DLRSNDFGIVGSLPR
B9: GlyRβ_Full_Positional_Scan_166 (peptide)
chain: DLRSNDFSVVGSLPR
B10: GlyRβ_Full_Positional_Scan_128 (peptide)
chain: DLRSNDWSIVGSLPR

Target: T1, gephyrin E domain (gephE), recombinant

Binder | Ki [µM]
B1 | 10

Target: T2, Gephyrin E domain (gephE)

Binder | EC50 [µM]
B2 | 107
B3 | 228
B4 | 2200
B5 | 268
B6 | 198
B7 | 118
B8 | 505
B9 | 255
B10 | 380
